Assay results reported in patent US9486519B2, “Use of FLT3 ligand for enhancing immune responses in RNA immunization” (BioNTech AG, priority 2008, dated 2016).

What was measured:
[1] = Half-time of Flt3L-IgG4 in serum, human IgG ELISA; assay type: in vivo, Balb/c mice
Protocol: At defined time points (prior to administration; 3 h, 24 h, 48 h, 3 d, 5 d, 7 d, 9 d, 14 d, 21 d) serum samples of the mice were preserved. These samples were used in an ELISA assay for quantifying human IgG. The half-time is 2.14 days (=51 hours).
At defined time points (prior to administration; 3 h, 24 h, 48 h, 3 d, 5 d, 7 d, 9 d, 14 d, 21 d) serum samples of the mice were preserved. These samples were used in an ELISA assay for quantifying human IgG. The half-time is 1,667 days (=40 hours).
Serum samples obtained from the mice were preserved at defined time points (prior to administration; 3 h, 24 h, 48 h, 3 d, 5 d, 7 d, 9 d, 14 d, 21d). Human IgG was quantified in these samples by means of an ELISA assay. Due to the fusion of human IgG4 to FIt3L in this construct the Flt3L concentration can be determined by quantifying human IgG in serum of mice.

B16 Ova tumors = test: Therapeutic vaccination against B16 Ova tumors, tumor volume; assay type: in vivo, C57BL/6 mice
Protocol: Examination of tumor growth. To this end, four groups (n=10) of C57BL/6 mice were formed. All mice received on day 0 a s.c. injection of B16 Ova tumor cells (2×10^5). Hereof a control group was only treated by IgG4 injection (15 μg; d3, d7, d14, d18). […] The tumor volume was determined after tumor inoculation on a regular basis (d7, d10, d13, d16, d19, d22). The average tumor volume [mm^3] on the days following tumor inoculation [day] is shown.
To this end four groups (n=10) of C57BL/6 mice were formed. All mice received on day 0 a s.c. injection of 2×10^5 B16 Ova tumor cells (Bellone et al., J. Immunol., 2000, 165:2651-2656). Thereof a control group was only treated by injection of IgG4 (15 μg; d3, d7, d14, d18). […] The tumor volume was determined on the following days after tumor inoculation: d7, d10, d13, d16, d19 and d22 (d=day).

B1: Flt3L-IgG4: recombinant human Flt3 ligand prepared as a fusion protein with IgG4, SEQ ID NO: 6, expressed in HEK293 cells (protein)
chain: MTVLAPAWSPTTYLLLLLLLSSGLSGTQDCSFQHSPISSDFAVKIRELSDYLLQDYPVTVASNLQDEELCGGLWRLVLAQRWMERLKTVAGSKMQGLLERVNTEIHFVTKCAFQPPPSCLRFVQTNISRLLQETSEQLVALKPWITRQNFSRCLELQCQPDSSTLPPPWSPRPLEATAPTAPQPPRSPPCPSCPAPEFLGGPSVFLFPPKPKDTLMISRTPEVTCVVVDVSQEDPEVQFNWYVDGVEVHNAKTKPREEQFNSTYRVVSVLTVLHQDWLNGKEYKCKVSNKGLPSSIEKTISKAKGQPREPQVYTLPPSQEEMTKNQVSLTCLVKGFYPSDIAVEWESNGQPENNYKTTPPVLDSDGSFFLYSRLTVDKSRWQEGNVFSCSVMHEALHNHYTQKSLSLSPGK
modifications: Fusionsprotein
- detectable in serum after injection ([1]; 20 μg and 50 μg i.p.): up to 5 days
- half-life in serum ([1]; 20 μg i.p.): 51 h
- half-time in serum ([1]; 20 μg i.p.): 2.14 days
- half-life in serum ([1]; 50 μg i.p.): 40 h
- stability compared to Flt3L without IgG4 fusion ([1]; from serum half-life): increased stability
- tumor growth (B16 Ova tumors; Flt3L administration combined with RNA vaccination): complete suspension of tumor growth
- tumor growth (B16 Ova tumors; only Flt3L administered, 15 μg): slight delay of tumor growth
- effect of the combination with intranodal vaccination of RNA (B16 Ova tumors; tumor volume): synergistic effect
